This note sets out measurements from IntAct's records for PubMed 31515488.

First the molecules themselves.
B1: IQ motif and ubiquitin-like domain-containing protein (Homo sapiens), Q8NA54 (parent)
chain: MSNQQEKYEAQNIVNSTEESDDAFDTVTIPVPSEEPQESDQTEEHESGIEQFSESHAIHVEEQSDQSFSSLEPDNEQLMEEVISPRQVSYTPQHHEKQYAMQRPNDDSLAFLDKIKSVKESLQESVEDSLATVKVVLIPVGQEIVIPFKVDTILKYLKDHFSHLLGIPHSVLQIRYSGKILKNNETLVQHGVKPQEIVQVEIFSTNPDLYPVRRIDGLTDVSQIITVTVQTGLDQYQQVPVEIVKSDFHKPFLGGFRHKVTGVEYHNAGTQTVPKRIPERLSIFCRDTQTVFQKKNLQQTTNTTSTQMTNIGVYVSNMTDKLVTPGKYFSAAEYHAQRLKAVIVIQTYYRQWHAKIFVENLRRQKSLRLEWETQQELRKIREKEEWIKLDYHRRHNPKTNEDFEFLYNALEFWRQEELTRINQSFTGAERKAALCELLEKETQIIASIGRHRYIAYMANQEAAIQAFLDKCSAPKIWRTPNGKTIEMDTQFTIRARELQNIYKCIMLKNISQDERLDVLLTLKHTVKEHECKLTQEILELIDREVDLMMRGVKHHNLEGLRKRIATLFFHYIKTPLFNPEVAKYLKVPQDPLKFYKKIYFCHSCQLYLPSTEFSVSSTSRRIYRCRNCINLQNEAQKRESFLKYKCLLQQLYYTEADYEDDSKIAFLMQLQDIQYLTENIWASQSVLSACDNLSDLVMVRWNKSLEWSPWNCILLTKDEAAAHLKLTSIEEGYERSFIHKIKHKHILAKNYFSQVPVLASFILDDGEIDEIRWKYHSDTTPKIIESQRPPH
B2: Calcium-binding and coiled-coil domain-containing protein 2 (Homo sapiens), Q13137 (parent)
chain: MEETIKDPPTSAVLLDHCHFSQVIFNSVEKFYIPGGDVTCHYTFTQHFIPRRKDWIGIFRVGWKTTREYYTFMWVTLPIDLNNKSAKQQEVQFKAYYLPKDDEYYQFCYVDEDGVVRGASIPFQFRPENEEDILVVTTQGEVEEIEQHNKELCKENQELKDSCISLQKQNSDMQAELQKKQEELETLQSINKKLELKVKEQKDYWETELLQLKEQNQKMSSENEKMGIRVDQLQAQLSTQEKEMEKLVQGDQDKTEQLEQLKKENDHLFLSLTEQRKDQKKLEQTVEQMKQNETTAMKKQQELMDENFDLSKRLSENEIICNALQRQKERLEGENDLLKRENSRLLSYMGLDFNSLPYQVPTSDEGGARQNPGLAYGNPYSGIQESSSPSPLSIKKCPICKADDICDHTLEQQQMQPLCFNCPICDKIFPATEKQIFEDHVFCHSL
partner: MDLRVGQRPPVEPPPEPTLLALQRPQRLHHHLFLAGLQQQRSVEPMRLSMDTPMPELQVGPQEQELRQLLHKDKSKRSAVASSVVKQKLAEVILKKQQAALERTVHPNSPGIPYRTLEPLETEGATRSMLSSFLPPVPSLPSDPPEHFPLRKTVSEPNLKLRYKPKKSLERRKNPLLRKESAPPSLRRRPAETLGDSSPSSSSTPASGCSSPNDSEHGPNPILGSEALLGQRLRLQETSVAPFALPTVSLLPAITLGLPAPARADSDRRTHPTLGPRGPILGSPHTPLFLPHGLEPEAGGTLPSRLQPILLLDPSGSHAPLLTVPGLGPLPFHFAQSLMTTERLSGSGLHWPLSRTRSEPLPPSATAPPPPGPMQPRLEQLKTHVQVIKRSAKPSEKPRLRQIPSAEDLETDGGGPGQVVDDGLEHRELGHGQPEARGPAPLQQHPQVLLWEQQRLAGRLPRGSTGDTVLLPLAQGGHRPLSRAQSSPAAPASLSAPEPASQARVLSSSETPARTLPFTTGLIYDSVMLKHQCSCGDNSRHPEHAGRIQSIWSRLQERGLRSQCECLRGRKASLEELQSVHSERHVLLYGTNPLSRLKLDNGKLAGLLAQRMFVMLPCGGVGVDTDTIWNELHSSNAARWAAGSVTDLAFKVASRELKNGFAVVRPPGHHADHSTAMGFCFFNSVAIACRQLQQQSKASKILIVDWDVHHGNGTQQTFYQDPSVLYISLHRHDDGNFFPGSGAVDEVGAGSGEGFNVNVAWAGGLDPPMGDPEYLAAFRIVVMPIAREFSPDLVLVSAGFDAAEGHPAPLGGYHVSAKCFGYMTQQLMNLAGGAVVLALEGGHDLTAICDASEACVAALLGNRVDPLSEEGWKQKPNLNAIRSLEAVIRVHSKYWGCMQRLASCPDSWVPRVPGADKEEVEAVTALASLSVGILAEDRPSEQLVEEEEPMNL
B3: Neutrophil cytosol factor 2 (Homo sapiens), P19878 (parent)
chain: MSLVEAISLWNEGVLAADKKDWKGALDAFSAVQDPHSRICFNIGCMYTILKNMTEAEKAFTRSINRDKHLAVAYFQRGMLYYQTEKYDLAIKDLKEALIQLRGNQLIDYKILGLQFKLFACEVLYNIAFMYAKKEEWKKAEEQLALATSMKSEPRHSKIDKAMECVWKQKLYEPVVIPVGKLFRPNERQVAQLAKKDYLGKATVVASVVDQDSFSGFAPLQPQAAEPPPRPKTPEIFRALEGEAHRVLFGFVPETKEELQVMPGNIVFVLKKGNDNWATVMFNGQKGLVPCNYLEPVELRIHPQQQPQEESSPQSDIPAPPSSKAPGRPQLSPGQKQKEEPKEVKLSVPMPYTLKVHYKYTVVMKTQPGLPYSQVRDMVSKKLELRLEHTKLSYRPRDSNELVPLSEDSMKDAWGQVKNYCLTLWCENTVGDQGFPDEPKESEKADANNQTTEPQLKKGSQVEALFSYEATQPEDLEFQEGDIILVLSKVNEEWLEGECKGKVGIFPKVFVEDCATTDLESTRREV
B4: Centrin-1 (Homo sapiens), Q12798 (parent)
chain: MASGFKKPSAASTGQKRKVAPKPELTEDQKQEVREAFDLFDVDGSGTIDAKELKVAMRALGFEPRKEEMKKMISEVDREGTGKISFNDFLAVMTQKMSEKDTKEEILKAFRLFDDDETGKISFKNLKRVANELGENLTDEELQEMIDEADRDGDGEVNEEEFLRIMKKTSLY
partner: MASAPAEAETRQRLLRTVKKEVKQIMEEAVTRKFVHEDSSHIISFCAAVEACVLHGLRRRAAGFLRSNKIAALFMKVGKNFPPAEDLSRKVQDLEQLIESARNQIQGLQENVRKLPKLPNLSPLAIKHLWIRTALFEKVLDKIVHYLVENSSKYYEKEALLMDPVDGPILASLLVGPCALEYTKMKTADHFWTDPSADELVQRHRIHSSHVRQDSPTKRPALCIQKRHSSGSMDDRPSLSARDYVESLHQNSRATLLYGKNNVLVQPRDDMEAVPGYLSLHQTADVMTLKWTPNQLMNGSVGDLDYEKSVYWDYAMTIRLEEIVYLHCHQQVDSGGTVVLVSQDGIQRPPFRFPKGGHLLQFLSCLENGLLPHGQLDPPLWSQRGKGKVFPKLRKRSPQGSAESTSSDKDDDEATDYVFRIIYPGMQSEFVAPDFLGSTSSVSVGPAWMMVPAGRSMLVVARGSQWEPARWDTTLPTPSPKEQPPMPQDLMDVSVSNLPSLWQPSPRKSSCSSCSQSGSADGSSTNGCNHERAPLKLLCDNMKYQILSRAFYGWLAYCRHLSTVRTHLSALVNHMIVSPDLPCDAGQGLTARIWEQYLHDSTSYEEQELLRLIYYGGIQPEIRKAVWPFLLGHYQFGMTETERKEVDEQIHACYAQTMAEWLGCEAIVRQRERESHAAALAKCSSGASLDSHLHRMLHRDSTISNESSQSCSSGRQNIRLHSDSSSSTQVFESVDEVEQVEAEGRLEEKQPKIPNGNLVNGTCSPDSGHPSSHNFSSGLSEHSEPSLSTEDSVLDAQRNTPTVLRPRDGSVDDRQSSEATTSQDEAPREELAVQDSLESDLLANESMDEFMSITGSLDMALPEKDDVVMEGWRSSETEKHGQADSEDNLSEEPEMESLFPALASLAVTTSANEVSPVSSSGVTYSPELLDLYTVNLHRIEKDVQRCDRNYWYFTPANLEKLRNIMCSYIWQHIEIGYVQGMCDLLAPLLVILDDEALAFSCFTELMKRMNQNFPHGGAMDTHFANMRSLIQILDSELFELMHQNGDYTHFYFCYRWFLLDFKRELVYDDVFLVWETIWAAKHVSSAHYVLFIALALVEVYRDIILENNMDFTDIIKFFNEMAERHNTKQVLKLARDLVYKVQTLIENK

One assay covers variants of B1. Particulars: with tri23_human TRIM23, P36406.
tri23_human TRIM23, P36406, sequence (P36406 whole entry): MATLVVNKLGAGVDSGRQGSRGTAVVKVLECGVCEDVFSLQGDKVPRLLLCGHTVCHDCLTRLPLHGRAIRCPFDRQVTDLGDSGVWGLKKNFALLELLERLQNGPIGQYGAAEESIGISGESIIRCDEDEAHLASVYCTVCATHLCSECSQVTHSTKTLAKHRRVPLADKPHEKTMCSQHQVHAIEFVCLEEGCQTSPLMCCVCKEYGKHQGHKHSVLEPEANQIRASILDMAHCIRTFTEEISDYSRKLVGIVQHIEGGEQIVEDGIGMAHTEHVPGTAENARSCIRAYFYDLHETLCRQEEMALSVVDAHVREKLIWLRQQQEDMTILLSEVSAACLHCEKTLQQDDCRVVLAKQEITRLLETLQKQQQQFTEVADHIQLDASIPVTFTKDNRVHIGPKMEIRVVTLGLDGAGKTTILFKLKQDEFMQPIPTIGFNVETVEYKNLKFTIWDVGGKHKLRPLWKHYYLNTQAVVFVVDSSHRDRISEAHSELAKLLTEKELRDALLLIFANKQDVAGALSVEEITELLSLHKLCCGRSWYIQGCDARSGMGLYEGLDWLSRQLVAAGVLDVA
For V126M, the “effect of a mutation on the interaction” value is recorded as “with no effect”.

Variants of B2 are the subject of a further assay. Particulars: with hdac7_human HDAC7, Q8WUI4.
Turning to T273A, the “effect of a mutation on the interaction” value is on record as “with no effect”. Same read-out and setting: the value for P389A was “with no effect”.

The variants in the next assay derive from B3. The note with it: with kifa3_human KIFAP3, Q92845.
kifa3_human KIFAP3, Q92845, sequence (Q92845 whole entry): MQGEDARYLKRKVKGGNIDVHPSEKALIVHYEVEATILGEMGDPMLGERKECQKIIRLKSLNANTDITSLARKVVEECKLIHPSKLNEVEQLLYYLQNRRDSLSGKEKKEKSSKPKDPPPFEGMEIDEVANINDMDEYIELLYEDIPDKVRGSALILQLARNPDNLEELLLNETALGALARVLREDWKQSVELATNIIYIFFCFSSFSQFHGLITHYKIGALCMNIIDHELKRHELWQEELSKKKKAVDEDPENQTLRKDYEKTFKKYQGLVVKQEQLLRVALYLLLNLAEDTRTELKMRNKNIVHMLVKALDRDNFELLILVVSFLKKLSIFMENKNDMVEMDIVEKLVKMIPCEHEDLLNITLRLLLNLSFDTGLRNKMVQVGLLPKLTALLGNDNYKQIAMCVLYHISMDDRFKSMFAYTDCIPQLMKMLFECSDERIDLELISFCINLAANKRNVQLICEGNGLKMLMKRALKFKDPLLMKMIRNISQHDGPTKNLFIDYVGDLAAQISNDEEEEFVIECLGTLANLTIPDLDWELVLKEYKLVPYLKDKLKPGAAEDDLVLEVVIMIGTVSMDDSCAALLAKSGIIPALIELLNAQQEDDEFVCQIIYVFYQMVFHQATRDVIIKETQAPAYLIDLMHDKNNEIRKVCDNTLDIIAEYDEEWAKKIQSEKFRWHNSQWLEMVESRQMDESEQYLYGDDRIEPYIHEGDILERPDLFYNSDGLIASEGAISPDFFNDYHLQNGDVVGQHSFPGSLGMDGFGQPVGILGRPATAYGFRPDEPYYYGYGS
As for V297A, the “effect of a mutation on the interaction” value was “with no effect”.

The variants in a further assay derive from B4. The note with it: with sgsm1_human SGSM1, Q2NKQ1.
Consider M72T, for which the “effect of a mutation on the interaction” value was “with no effect”.
